Key:
4H3413-AA = target: T1, 4H3413-AA; assay: two-hybrid library CCmax;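 also: natural log of median RNA to DNA barcode read ratio; higher means stronger binding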
T1 chain: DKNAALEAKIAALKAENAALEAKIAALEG

4H3588-AA = target: T2, 4H3588-AA; assay: two-hybrid library CCmax; settings: mean of both orientations;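 also: natural log of median RNA to DNA barcode read ratio; higher means stronger binding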
T2 chain: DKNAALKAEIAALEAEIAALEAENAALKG

4H3606-AA = target: T3, 4H3606-AA; assay: two-hybrid library CCmax; settings: mean of both orientations;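 also: natural log of median RNA to DNA barcode read ratio; higher means stronger binding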
T3 chain: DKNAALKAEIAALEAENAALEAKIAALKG

4H3631-AA = target: T4, 4H3631-AA; assay: two-hybrid library CCmax; settings: mean of both orientations;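 also: natural log of median RNA to DNA barcode read ratio; higher means stronger binding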
T4 chain: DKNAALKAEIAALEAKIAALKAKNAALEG

4H3697-AA = target: T5, 4H3697-AA; assay: two-hybrid library CCmax; settings: mean of both orientations;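 also: natural log of median RNA to DNA barcode read ratio; higher means stronger binding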
T5 chain: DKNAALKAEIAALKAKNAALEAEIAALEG

4H3718-AA = target: T6, 4H3718-AA; assay: two-hybrid library CCmax; settings: mean of both orientations;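 also: natural log of median RNA to DNA barcode read ratio; higher means stronger binding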
T6 chain: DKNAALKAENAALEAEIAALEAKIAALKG

4H384-AA = target: T7, 4H384-AA; assay: two-hybrid library CCmax; settings: mean of both orientations
T7 chain: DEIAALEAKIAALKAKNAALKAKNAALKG

4H3865-AA = target: T8, 4H3865-AA; assay: two-hybrid library CCmax; settings: mean of both orientations
T8 chain: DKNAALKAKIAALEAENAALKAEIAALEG

4H697-AA = target: T9, 4H697-AA; assay: two-hybrid library CCmax; settings: mean of both orientations
T9 chain: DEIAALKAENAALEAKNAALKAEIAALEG

4H982-AA = target: T10, 4H982-AA; assay: two-hybrid library CCmax; settings: mean of both orientations
T10 chain: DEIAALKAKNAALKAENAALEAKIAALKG

4H932-bN = target: T11, 4H932-bN; assay: two-hybrid library CCNG1
T11 chain: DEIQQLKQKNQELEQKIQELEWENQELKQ

4H949-bN = target: T12, 4H949-bN; assay: two-hybrid library CCNG1
T12 chain: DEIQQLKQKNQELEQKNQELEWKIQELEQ

4H949-bA = target: T13, 4H949-bA; assay: two-hybrid library CCNG1
T13 chain: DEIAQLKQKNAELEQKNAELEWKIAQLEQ

## DKNAALEAKIAALKAENAALEAKIAALEG [4H3413-AA]
4H3413-AA
  interaction score: 0.362
4H3588-AA
  interaction score: -1.34
4H3606-AA
  interaction score: 1.14
4H3631-AA
  interaction score: -1.19
4H3697-AA
  interaction score: -0.722
4H3718-AA
  interaction score: -1.38
4H384-AA
  interaction score: -0.506
4H3865-AA
  interaction score: 0.0208
4H697-AA
  interaction score: -0.828
4H982-AA
  interaction score: -1.39

## DEIQQLKQKNQELEQKIQELEWENQELKQ [4H932-bN]
4H932-bN
  interaction score: 1.01
4H949-bN
  interaction score: -1.08

## DEIAQLKQKNAELEQKNAELEWKIAQLEQ [4H949-bA]
4H949-bA
  interaction score: -0.253

## DEIQQLKQKNQELEQKNQELEWKIQELEQ [4H949-bN]
4H949-bN
  interaction score: -0.614
